According to paper PMC9588639 (Journal of thrombosis and haemostasis : JTH, 2022):

Tests used:
Test in all cases: BLI
[1] = molecular target: mouse GPIbα LBD (mLBD, residues 1-290) (mouse)
[2] = molecular target: human GPIbα LBD (mature protein residues 1-290) (human)
[3] = molecular target: human GPIbα LBD (mature protein residues 1-290) W230L (human, UniProt P07359 17-306, W230L)
human GPIbα LBD (mature protein residues 1-290) W230L, sequence (P07359 17-306 W246L): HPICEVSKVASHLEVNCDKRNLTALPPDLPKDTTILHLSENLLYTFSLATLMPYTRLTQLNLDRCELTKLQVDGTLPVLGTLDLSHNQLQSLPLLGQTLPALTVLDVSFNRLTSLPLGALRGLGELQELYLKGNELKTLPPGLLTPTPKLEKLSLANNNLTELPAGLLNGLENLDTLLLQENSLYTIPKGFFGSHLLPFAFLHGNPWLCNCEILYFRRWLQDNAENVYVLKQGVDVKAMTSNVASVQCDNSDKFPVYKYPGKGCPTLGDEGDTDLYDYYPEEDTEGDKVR

mouse GPIbα LBD (mLBD, residues 1-290) (mouse), sequence (O35930 whole entry, the tested form may be a part): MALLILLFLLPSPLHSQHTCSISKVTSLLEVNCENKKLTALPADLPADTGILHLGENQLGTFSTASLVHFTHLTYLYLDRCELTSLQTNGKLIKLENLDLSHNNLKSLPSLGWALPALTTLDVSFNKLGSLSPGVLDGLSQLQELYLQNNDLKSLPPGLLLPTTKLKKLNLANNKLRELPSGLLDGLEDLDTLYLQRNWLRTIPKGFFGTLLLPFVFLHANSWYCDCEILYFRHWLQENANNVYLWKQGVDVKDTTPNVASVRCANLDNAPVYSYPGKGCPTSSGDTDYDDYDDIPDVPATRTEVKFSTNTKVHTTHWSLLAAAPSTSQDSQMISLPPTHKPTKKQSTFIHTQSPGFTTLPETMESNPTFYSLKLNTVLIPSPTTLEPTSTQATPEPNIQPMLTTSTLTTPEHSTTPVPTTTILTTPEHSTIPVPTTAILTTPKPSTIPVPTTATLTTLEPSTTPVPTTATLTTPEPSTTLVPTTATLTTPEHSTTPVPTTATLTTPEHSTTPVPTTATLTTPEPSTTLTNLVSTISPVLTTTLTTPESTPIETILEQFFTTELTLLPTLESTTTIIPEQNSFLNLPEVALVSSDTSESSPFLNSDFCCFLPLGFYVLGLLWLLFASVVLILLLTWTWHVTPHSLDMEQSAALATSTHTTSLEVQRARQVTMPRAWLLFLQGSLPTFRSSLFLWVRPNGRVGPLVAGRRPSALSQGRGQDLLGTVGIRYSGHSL

Molecule | Kd [1] | Kd [2] | binding result [3]
mouse tAIM-A1 (containing VWF residues 1261-1472) (from UniProt Q8CIZ8 1261-1472) (domain or fragment) | 386 nM | – | –
recombinant mouse AIM-A1 protein (mouse VWF residues 1238-1493) (domain or fragment, UniProt Q8CIZ8 1238-1493, looked up) QEPGGLVAPPTDAPVSSTTPYVEDTPEPPLHNFYCSKLLDLVFLLDGSSMLSEAEFEVLKAFVVGMMERLHISQKRIRVAVVEYHDGSRAYLELKARKRPSELRRITSQIKYTGSQVASTSEVLKYTLFQIFGKIDRPEASHITLLLTASQEPPRMARNLVRYVQGLKKKKVIVIPVGIGPHASLKQIRLIEKQAPENKAFLLSGVDELEQRRDEIVSYLCDLAPEAPAPTQPPQVAHVTVSPGIAGISSPGPKRK | 1000 nM | 515 nM | binds
